The series “SEC” deals with the molecule itself. Nature of the series: SEC. In general terms: Size exclusion chromatography separates by hydrodynamic size, large species first.
For the next series, the target named is T1, SsoMCM K323A/R440A (Sulfolobus solfataricus, UniProt Q9UXG1 1-686, K323A;R440A).
T1 sequence: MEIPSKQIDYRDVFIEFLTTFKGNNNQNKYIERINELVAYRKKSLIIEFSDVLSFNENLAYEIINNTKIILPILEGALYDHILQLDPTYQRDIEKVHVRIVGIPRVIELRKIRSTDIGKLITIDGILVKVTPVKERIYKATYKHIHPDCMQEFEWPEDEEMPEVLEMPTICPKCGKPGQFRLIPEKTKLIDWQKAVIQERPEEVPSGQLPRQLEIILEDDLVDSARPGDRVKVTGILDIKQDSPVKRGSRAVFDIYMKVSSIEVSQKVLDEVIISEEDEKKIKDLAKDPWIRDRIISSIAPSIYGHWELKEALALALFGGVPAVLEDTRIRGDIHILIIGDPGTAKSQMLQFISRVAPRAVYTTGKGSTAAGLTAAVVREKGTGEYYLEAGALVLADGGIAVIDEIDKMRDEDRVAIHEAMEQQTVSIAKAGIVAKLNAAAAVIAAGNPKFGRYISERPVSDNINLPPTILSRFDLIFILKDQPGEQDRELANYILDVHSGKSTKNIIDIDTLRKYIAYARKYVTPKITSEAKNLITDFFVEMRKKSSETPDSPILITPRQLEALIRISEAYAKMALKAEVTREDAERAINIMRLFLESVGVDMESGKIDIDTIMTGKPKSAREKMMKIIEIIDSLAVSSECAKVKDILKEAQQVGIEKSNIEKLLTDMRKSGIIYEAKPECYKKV
Nature of the series: single-pair FRET.

Series [1] addresses T2, SsoMCM WT (Sulfolobus solfataricus, UniProt Q9UXG1 1-686).
T2 sequence: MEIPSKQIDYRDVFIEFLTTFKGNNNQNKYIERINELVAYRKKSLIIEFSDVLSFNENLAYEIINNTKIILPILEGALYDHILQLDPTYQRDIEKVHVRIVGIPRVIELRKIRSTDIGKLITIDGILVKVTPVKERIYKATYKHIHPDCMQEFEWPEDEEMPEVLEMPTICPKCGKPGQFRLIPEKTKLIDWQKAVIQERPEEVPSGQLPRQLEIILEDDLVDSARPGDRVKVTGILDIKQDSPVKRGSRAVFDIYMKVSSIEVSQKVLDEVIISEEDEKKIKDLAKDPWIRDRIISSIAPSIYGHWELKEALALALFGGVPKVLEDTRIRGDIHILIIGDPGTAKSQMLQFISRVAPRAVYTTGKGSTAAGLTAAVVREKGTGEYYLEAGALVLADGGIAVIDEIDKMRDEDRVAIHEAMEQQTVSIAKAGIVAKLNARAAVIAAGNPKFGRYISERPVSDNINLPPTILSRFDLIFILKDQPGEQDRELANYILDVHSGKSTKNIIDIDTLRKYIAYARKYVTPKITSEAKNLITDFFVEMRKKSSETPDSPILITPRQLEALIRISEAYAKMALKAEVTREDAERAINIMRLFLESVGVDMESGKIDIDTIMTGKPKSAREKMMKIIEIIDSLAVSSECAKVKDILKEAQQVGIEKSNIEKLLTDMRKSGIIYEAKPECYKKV
Nature of the series: single-pair FRET.

In series [2] the target is T2, SsoMCM WT. Nature of the series: fluorescence anisotropy. For orientation: Fluorescence polarisation rises when a labelled molecule tumbles more slowly, as on binding a larger partner.

B1: Full-length wild-type Sulfolobus solfataricus minichromosome maintenance (MCM) helicase (enzyme, UniProt Q9UXG1 1-686, looked up)
chain: MEIPSKQIDYRDVFIEFLTTFKGNNNQNKYIERINELVAYRKKSLIIEFSDVLSFNENLAYEIINNTKIILPILEGALYDHILQLDPTYQRDIEKVHVRIVGIPRVIELRKIRSTDIGKLITIDGILVKVTPVKERIYKATYKHIHPDCMQEFEWPEDEEMPEVLEMPTICPKCGKPGQFRLIPEKTKLIDWQKAVIQERPEEVPSGQLPRQLEIILEDDLVDSARPGDRVKVTGILDIKQDSPVKRGSRAVFDIYMKVSSIEVSQKVLDEVIISEEDEKKIKDLAKDPWIRDRIISSIAPSIYGHWELKEALALALFGGVPKVLEDTRIRGDIHILIIGDPGTAKSQMLQFISRVAPRAVYTTGKGSTAAGLTAAVVREKGTGEYYLEAGALVLADGGIAVIDEIDKMRDEDRVAIHEAMEQQTVSIAKAGIVAKLNARAAVIAAGNPKFGRYISERPVSDNINLPPTILSRFDLIFILKDQPGEQDRELANYILDVHSGKSTKNIIDIDTLRKYIAYARKYVTPKITSEAKNLITDFFVEMRKKSSETPDSPILITPRQLEALIRISEAYAKMALKAEVTREDAERAINIMRLFLESVGVDMESGKIDIDTIMTGKPKSAREKMMKIIEIIDSLAVSSECAKVKDILKEAQQVGIEKSNIEKLLTDMRKSGIIYEAKPECYKKV
Consider B1, for which the “stoichiometry N” value in the series “SEC” was 6.

B2: SsoMCM R440A (enzyme, Sulfolobus solfataricus, UniProt Q9UXG1 1-686, looked up)
chain: MEIPSKQIDYRDVFIEFLTTFKGNNNQNKYIERINELVAYRKKSLIIEFSDVLSFNENLAYEIINNTKIILPILEGALYDHILQLDPTYQRDIEKVHVRIVGIPRVIELRKIRSTDIGKLITIDGILVKVTPVKERIYKATYKHIHPDCMQEFEWPEDEEMPEVLEMPTICPKCGKPGQFRLIPEKTKLIDWQKAVIQERPEEVPSGQLPRQLEIILEDDLVDSARPGDRVKVTGILDIKQDSPVKRGSRAVFDIYMKVSSIEVSQKVLDEVIISEEDEKKIKDLAKDPWIRDRIISSIAPSIYGHWELKEALALALFGGVPKVLEDTRIRGDIHILIIGDPGTAKSQMLQFISRVAPRAVYTTGKGSTAAGLTAAVVREKGTGEYYLEAGALVLADGGIAVIDEIDKMRDEDRVAIHEAMEQQTVSIAKAGIVAKLNAAAAVIAAGNPKFGRYISERPVSDNINLPPTILSRFDLIFILKDQPGEQDRELANYILDVHSGKSTKNIIDIDTLRKYIAYARKYVTPKITSEAKNLITDFFVEMRKKSSETPDSPILITPRQLEALIRISEAYAKMALKAEVTREDAERAINIMRLFLESVGVDMESGKIDIDTIMTGKPKSAREKMMKIIEIIDSLAVSSECAKVKDILKEAQQVGIEKSNIEKLLTDMRKSGIIYEAKPECYKKV
As to B2, the “stoichiometry N” value in the series “SEC” was 6.

B3: SsoMCM K323A/R440A (enzyme, Sulfolobus solfataricus, UniProt Q9UXG1 1-686, looked up)
chain: MEIPSKQIDYRDVFIEFLTTFKGNNNQNKYIERINELVAYRKKSLIIEFSDVLSFNENLAYEIINNTKIILPILEGALYDHILQLDPTYQRDIEKVHVRIVGIPRVIELRKIRSTDIGKLITIDGILVKVTPVKERIYKATYKHIHPDCMQEFEWPEDEEMPEVLEMPTICPKCGKPGQFRLIPEKTKLIDWQKAVIQERPEEVPSGQLPRQLEIILEDDLVDSARPGDRVKVTGILDIKQDSPVKRGSRAVFDIYMKVSSIEVSQKVLDEVIISEEDEKKIKDLAKDPWIRDRIISSIAPSIYGHWELKEALALALFGGVPAVLEDTRIRGDIHILIIGDPGTAKSQMLQFISRVAPRAVYTTGKGSTAAGLTAAVVREKGTGEYYLEAGALVLADGGIAVIDEIDKMRDEDRVAIHEAMEQQTVSIAKAGIVAKLNAAAAVIAAGNPKFGRYISERPVSDNINLPPTILSRFDLIFILKDQPGEQDRELANYILDVHSGKSTKNIIDIDTLRKYIAYARKYVTPKITSEAKNLITDFFVEMRKKSSETPDSPILITPRQLEALIRISEAYAKMALKAEVTREDAERAINIMRLFLESVGVDMESGKIDIDTIMTGKPKSAREKMMKIIEIIDSLAVSSECAKVKDILKEAQQVGIEKSNIEKLLTDMRKSGIIYEAKPECYKKV
For B3, the “stoichiometry N” value in the series “SEC” was 6.

B4: SsoMCM K323A (enzyme, Sulfolobus solfataricus, UniProt Q9UXG1 1-686, looked up)
chain: MEIPSKQIDYRDVFIEFLTTFKGNNNQNKYIERINELVAYRKKSLIIEFSDVLSFNENLAYEIINNTKIILPILEGALYDHILQLDPTYQRDIEKVHVRIVGIPRVIELRKIRSTDIGKLITIDGILVKVTPVKERIYKATYKHIHPDCMQEFEWPEDEEMPEVLEMPTICPKCGKPGQFRLIPEKTKLIDWQKAVIQERPEEVPSGQLPRQLEIILEDDLVDSARPGDRVKVTGILDIKQDSPVKRGSRAVFDIYMKVSSIEVSQKVLDEVIISEEDEKKIKDLAKDPWIRDRIISSIAPSIYGHWELKEALALALFGGVPAVLEDTRIRGDIHILIIGDPGTAKSQMLQFISRVAPRAVYTTGKGSTAAGLTAAVVREKGTGEYYLEAGALVLADGGIAVIDEIDKMRDEDRVAIHEAMEQQTVSIAKAGIVAKLNARAAVIAAGNPKFGRYISERPVSDNINLPPTILSRFDLIFILKDQPGEQDRELANYILDVHSGKSTKNIIDIDTLRKYIAYARKYVTPKITSEAKNLITDFFVEMRKKSSETPDSPILITPRQLEALIRISEAYAKMALKAEVTREDAERAINIMRLFLESVGVDMESGKIDIDTIMTGKPKSAREKMMKIIEIIDSLAVSSECAKVKDILKEAQQVGIEKSNIEKLLTDMRKSGIIYEAKPECYKKV
Turning to B4, the “stoichiometry N” value in the series “SEC” turned out to be 6.

B5: spFRET fork 5'-tail 50 (51 nt) (mixed)
DNA 1: TGGCGACGGCAGCGAGGCTTTTTTTTTTTTTTTTTTTTTTTTTTTTTTT
DNA 2: TTTTTTTTTTTTTTTTTTTTTTTTTTTTTTTTTTTTTTTTTTTTTTTTTTTGCCTCGCTGCCGTCGCCA
With B5, the binding result with SsoMCM K323A/R440A and in the series with SsoMCM WT [1] was “binds” in each case.

B6: spFRET fork 5'-tail 70 (71 nt) (mixed)
DNA 1: TGGCGACGGCAGCGAGGCTTTTTTTTTTTTTTTTTTTTTTTTTTTTTTT
DNA 2: TTTTTTTTTTTTTTTTTTTTTTTTTTTTTTTTTTTTTTTTTTTTTTTTTTTTTTTTTTTTTTTTTTTTTTTGCCTCGCTGCCGTCGCCA
In the case of B6, the binding result with SsoMCM K323A/R440A and with SsoMCM WT [1] was “binds” each time.

B7: ssDNA (66 nt) (ssDNA)
DNA: CACCTCTCCCTACGCTTCCCACCCACCCCGACCGGCATCTGCTATGGTACGCTGAGCGAGAGTAGC
Molecule B7 had a Kd in the series with SsoMCM WT [2] of 26 ± 5 nM.

One may read the stoichiometry N as a count of units in the complex or per binding partner. By Kd is commonly meant the equilibrium constant for the complex coming apart. Read a low Kd as higher affinity.

The values above are taken from paper PMC3159478 (Nucleic Acids Research, 2011).
